In US20250282885A1 (VST BIO, published 2025):

Columns and labels:
[1] = biological target: T1, human Sdc2 (human, UniProt P34741 19-144, limits assumed); test: Octet tandem binning; saturating Ab m3 19844-R3-P1-C02 (row boxed, self-self >0.09)
T1 construct: Antigen of the Octet tandem binning, loaded on biosensors at 100 nM; also called huSdc2; hSdc2
Experimental: (§1) These studies were performed in a tandem binning assay format with human Sdc2, used as the antigen (concentration of 100 nM). Antigen loaded biosensors were dipped in a saturating solution of antibody (25 μg/ml) for 240 seconds followed by a competing antibody at 5 μg/ml for 180 seconds. […] Since saturation is not possible to achieve saturation with these clones, they are removed in as ligands, but retained in the analyte orientation in the analysis. A table summarizing the results of epitope binning of the 18 antibodies against huSdc2 is illustrated in FIG. 30. Data is normalized, where the raw binding signal from Competing Ab for a given Saturating Ab is divided by binding in the absence a […] (“buffer”). The threshold determining the matrix color is adjustable and dependent upon Ag-Ab binding. […] Table rows are based on similar looking binding profiles. Note that the coloration/cutoff is subjective, yellow color added to represent injections with ambiguous or very weak sandwiching signals. FIG. 31 illustrates a clustergram of the epitope binning studies, which was generated from the normalized binning data by importation into the statistical computing program R (The R Project for Statistical Computing: at r-project.org) and generation of a clustergram with the pvclust package.

[2] = biological target: T1, human Sdc2; test: Octet tandem binning; saturating Ab m1 19838-20H19-AB
Experimental: as §1

[3] = biological target: T1, human Sdc2; test: Kd (human Sdc2), summary table of the mAbs
[4] = biological target: T1, human Sdc2; test: Octet tandem binning; saturating Ab m8 19844-R4M-P1-B01 (marked non-binding ligand)
Experimental: as §1

[5] = biological target: T1, human Sdc2; test: Octet tandem binning; saturating Ab f12 19838-6-N03-A
Experimental: as §1

[6] = biological target: T1, human Sdc2; test: Octet tandem binning; saturating Ab f11 19838-20-H19-A
Experimental: as §1

[7] = biological target: T1, human Sdc2; test: Octet tandem binning; saturating Ab f7 19844-R3-P3-A12
Experimental: as §1

[8] = biological target: T1, human Sdc2; test: Octet tandem binning; saturating Ab f5 19844-R4M-P3-E06
Experimental: as §1

[9] = biological target: T1, human Sdc2; test: Octet tandem binning; saturating Ab m5 19844-R4M-P3-A12 (row boxed, self-self >0.09)
Experimental: as §1

[10] = biological target: T1, human Sdc2; test: Octet tandem binning; saturating Ab m7 19844-R3-P1-E07
Experimental: as §1

[11] = biological target: T1, human Sdc2; test: Octet BLI, heading box over the sensorgram
Experimental: (§2) In order to characterize the binding affinity and in vivo/in vitro functional ability of the twelve clones generated by the previous studies and disclosed in Table 1, a series of assays were performed on each clone. These assays measured the affinity of each antibody clone for human, pig, and mouse Sdc2 using an Octet® binding assay system. Additionally, the functional ability of each clone to inhibit VEGFA-driven permeability (see Santiago, et al. (2021) J Am Heart Assoc. 10(18):e020521) was assessed in two therapeutic settings: a “prevention” study in which three concentrations of antibody (5 μg/ml, 10 μg/ml, 15 μg/ml, 20 μg/ml, and/or 40 μg/ml depending on the study) were pre-incubated for an hour before administration of 100 ng/ml of VEGFA, and a “treatment” study in which 3 hours of pre-treatment with 100 ng/ml VEGFA were followed by treatment with antibody at 20 μg/ml or 40 μg/ml. Results are shown for 8-G17 in FIG. 8 and FIG. 9, 20-H19-AB in FIG. 10 and FIG. 11 (FIG. 12 for monkey ECs), R3-P3-C11 in FIG. 13 and FIG. 14, R4M-P3-E06 in FIG. 15 and FIG. 16, R3-P3-E09 in FIG. 17 and FIG. 18, R3-P1-C02 in FIG. 19 and FIG. 20, R3-P3-A12 in FIG. 21 and FIG. 22, R4M-P3-A12 in FIG. 23 and FIG. 24, and R4M-P1-A10 in FIG. 25 and FIG. 26.

[12] = biological target: T2, pig Sdc2 (pig, UniProt F1S0L5 19-145); test: Octet BLI, heading box over the sensorgram
T2 construct: also called pSdc2
Experimental: as §2

[13] = biological target: T1, human Sdc2; test: Octet tandem binning; saturating Ab f3 19838-6N03-A
Experimental: as §1

[14] = biological target: human Sdc2 on Human Umbilical Vein Endothelial Cells (HUVEC) (human, UniProt P34741 19-201); test: cell-based or functional assay
[15] = biological target: T2, pig Sdc2; test: Octet BLI, HIS1K sensor loaded with pigSdc2, antibody as sample; Full R2 0.997
[16] = biological target: T1, human Sdc2; test: Octet tandem binning; saturating Ab f4 19844-R3-P3-C11
Experimental: as §1

[17] = biological target: T1, human Sdc2; test: Octet BLI, HIS1K sensor loaded with huSdc2, antibody as sample; Full R2 0.9968
[18] = biological target: T1, human Sdc2; test: Octet tandem binning; saturating Ab f9 19838-6-E17-A
Experimental: as §1

[19] = biological target: T1, human Sdc2; test: Octet tandem binning; saturating Ab f6 19844-R3-P3-E09
Experimental: as §1

[20] = biological target: T1, human Sdc2; test: Octet tandem binning; saturating Ab f8 19844-R4M-P2-C02
Experimental: as §1

[21] = biological target: T1, human Sdc2; test: Octet tandem binning; Buffer in place of a saturating Ab
Experimental: as §1

[22] = biological target: T1, human Sdc2; test: Octet tandem binning; saturating Ab m4 19844-R4M-P1-A10
Experimental: as §1

[23] = biological target: T1, human Sdc2; test: Octet tandem binning; saturating Ab m6 19838-20H19-AA (marked non-binding ligand)
Experimental: as §1

[24] = biological target: T1, human Sdc2; test: Octet tandem binning; saturating Ab f10 19838-10-I12-A
Experimental: as §1

[25] = biological target: T1, human Sdc2; test: Octet tandem binning; saturating Ab m2 19838-8G17-A
Experimental: as §1

[26] = biological target: T2, pig Sdc2; test: Octet BLI, HIS1K sensor loaded with pigSdc2, antibody as sample; Full R2 0.9988; heading box reads Pig Sdc2 (Kd~ low femtomolar)
Experimental: as §2

[27] = biological target: T2, pig Sdc2; test: Octet BLI, HIS1K sensor loaded with pigSdc2, antibody as sample; Full R2 0.9988
Experimental: as §2

[28] = biological target: T1, human Sdc2; test: Octet BLI, HIS1K sensor loaded with huSdc2, antibody as sample; Full R2 0.998
[29] = biological target: T1, human Sdc2; test: Octet BLI, heading box over the sensorgram; remark: listed apart in the source

T1 sequence (P34741 19-144 limits assumed): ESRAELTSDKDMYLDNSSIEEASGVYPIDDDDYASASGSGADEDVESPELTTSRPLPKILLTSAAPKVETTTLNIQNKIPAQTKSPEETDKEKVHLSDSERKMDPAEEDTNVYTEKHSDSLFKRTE
Chain of human Sdc2 on Human Umbilical Vein Endothelial Cells (HUVEC) (P34741 19-201 limits assumed): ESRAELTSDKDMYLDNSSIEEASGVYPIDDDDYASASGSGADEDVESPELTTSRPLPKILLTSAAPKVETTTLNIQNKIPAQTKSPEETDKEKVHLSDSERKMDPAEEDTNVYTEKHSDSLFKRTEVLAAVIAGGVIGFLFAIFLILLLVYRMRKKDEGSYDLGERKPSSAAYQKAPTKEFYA

raw competing-Ab binding signal [1]	Kd [3]	raw competing-Ab binding signal [4]	raw competing-Ab binding signal [5]	raw competing-Ab binding signal [6]	raw competing-Ab binding signal [7]	raw competing-Ab binding signal [8]	raw competing-Ab binding signal [9]	raw competing-Ab binding signal [10]	raw competing-Ab binding signal [13]	% Inhibition of VEGFA-induced permeability at 24hrs (20ug/ml) [14]	raw competing-Ab binding signal [16]	raw competing-Ab binding signal [18]	raw competing-Ab binding signal [19]	raw competing-Ab binding signal [20]	raw competing-Ab binding signal [21]	raw competing-Ab binding signal [22]	raw competing-Ab binding signal [23]	raw competing-Ab binding signal [24]	Binder	further results
0.784	0.46 nM	0.827	0.0566	0.241	0.636	0.954	0.858	0.871	0.0574	100%	0.776	0.79	0.761	0.777	0.83	0.805	0.891	0.113	8-G17-A (antibody, V domains shown, PentaMice hybridoma clone, made recombinantly in CHO cells) VH: EVQLVESGGGLVKPGGSLKLSCEASGITFSNYVMSWVRQTPEKRLEWVATISDGGSYTYYPDNLKGRFTISRDNAKNNLYLQMSHLKSEDTAMYYCVRDRYDYDGRVYAMDYWGQGTSVTVSS VL: DVVMTQTPLSLPVSLGDQASISCRSSQSLVHSNGNTYLHWYLQKPGQSPKLLIYKVSNRFSGVPDRFSGSGSGTDFTLKITRVEAEDLGVYFCSQSTHVPWTFGGGTKLEIKR	raw competing-Ab binding signal [2]: 0.16; Kd [11]: ~0.46 nM; Kd [12]: ~0.45 nM; Kd [15]: 0.455 nM; koff [15]: 0.000195 s⁻¹; kon [15]: 428000 M⁻¹ s⁻¹; Kd [17]: 0.466 nM; koff [17]: 0.000235 s⁻¹; kon [17]: 505000 M⁻¹ s⁻¹
0.0781	0.37 nM	0.161	0.0082	0.0503	-0.102	0.158	0.173	0.214	-0.0355	90%	-0.0618	0.171	-0.0179	0.0763	0.197	0.0759	0.192	0.0503	20-H19-AB (antibody, mouse IgG1, kappa, V domains shown, PentaMice hybridoma clone, made recombinantly in CHO cells; also called 20-H1-AB) VH: EVQLVESGGGLVQPKGSLKLSCAASGFTFNIYAMHWVRQAPGKGLEWIARIGSKSSYYATYYADSVKDRFTISRDDSQSMLYLQTNNLKTEDTAMYYCVSGKGDWGQGTTLTVSS VL: not shown	raw competing-Ab binding signal [25]: -0.0786; Kd [26]: < 0.001 nM; koff [27]: < 1e-07 s⁻¹; kon [27]: 70700 M⁻¹ s⁻¹; Kd [28]: 0.369 nM; koff [28]: 3.18e-05 s⁻¹; kon [28]: 86200 M⁻¹ s⁻¹; Kd [29]: ~0.37 nM
